Measurements: patent publication US20260265789A1, “METHOD FOR IMPROVING 2, 4 DIHYDROXYBUTYRIC ACID PRODUCTION AND YIELD” (ADISSEO FRANCE S.A.S, priority 2023, published 2026)

Legend:
[1] = tested on: yfaU; assay: Transcriptomic analysis during DHB fermentation: aldolase gene expression; type: cell-based, Escherichia coli; conditions: in presence of significant amount of DHB
[2] = tested on: rhmA; assay: as above; type: cell-based, Escherichia coli; conditions: in presence of significant amount of DHB
[3] = tested on: garL; assay: as above; type: cell-based, Escherichia coli; conditions: in presence of significant amount of DHB
[4] = tested on: YjhH; assay: as above; type: cell-based, Escherichia coli; conditions: in presence of significant amount of DHB
[5] = tested on: yagE; assay: as above; type: cell-based, Escherichia coli; conditions: in presence of significant amount of DHB
[6] = target: T1, Escherichia coli pyruvate aldolase Eda (E.C. 4.1.2.14) (Escherichia coli, UniProt P0A955); assay: Kinetic characterization of pyruvate aldolase on OHB (coupled LdhA/NADH assay, 340 nm); type: biochemical; conditions: Tris-HCl 50 mM pH 7.5, 5 mM MgCl2, 37° C., 0 to 13 mM OHB
T1 construct: coupled LdhA/NADH assay
T1 sequence (P0A955 1-213): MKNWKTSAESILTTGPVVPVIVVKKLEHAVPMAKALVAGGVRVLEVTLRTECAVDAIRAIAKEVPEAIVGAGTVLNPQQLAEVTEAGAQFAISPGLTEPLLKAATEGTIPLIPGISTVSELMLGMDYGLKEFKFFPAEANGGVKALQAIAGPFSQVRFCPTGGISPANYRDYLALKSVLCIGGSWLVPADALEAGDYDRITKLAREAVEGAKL

[7] = variant obtained by in vivo evolution (Bouzon et al., 2017); cited from earlier work
[8] = In vivo capacity to degrade OHB by deletion of genes encoding pyruvate aldolase; type: cell-based, Escherichia coli; conditions: E. coli, gene deletion strains incubated with DHB
Description: We measured production of formate in strains that were deleted for one of these aldolase encoding gene.

[9] = substrate: O=C(O)C(=O)CCO; assay: purified protein, by the assay type; type: biochemical, Escherichia coli; conditions: Tris-HCl 50 mM pH 7.5, 5 mM MgCl2, 37° C., 0 to 13 mM OHB

## O=C(O)C(O)CCO (racemic) [DHB, 2,4-dihydroxybutyric acid]
[1]
  Maximal Expression: 1.09
  Minimal Expression: 0.9
[2]
  Maximal Expression: 1.14
  Minimal Expression: 0.98
[3]
  Maximal Expression: 1.32
  Minimal Expression: 1.06
[4]
  Maximal Expression: 3.33
  Minimal Expression: 1.25
[5]
  Maximal Expression: 13.33
  Minimal Expression: 1.82

## O=C(O)C(=O)CCO [OHB, 2-oxo-4-hydroxybutyrate]
[6]
  Km: > 20000 µM

B1: AlaC^A142PY275D: variant of alanine-α-ketoglutarate transaminase from E coli Ec-AlaC, obtained by in vivo evolution (Bouzon et al., 2017) (protein, UniProt P77434 1-412, looked up, variant A142P Y275D)
Glutamate-pyruvate …: MADTRPERRFTRIDRLPPYVFNITAELKMAARRRGEDIIDFSMGNPDGATPPHIVEKLCTVAQRPDTHGYSTSRGIPRLRRAISRWYQDRYDVEIDPESEAIVTIGSKEGLAHLMLATLDHGDTVLVPNPSYPIHIYGAVIPGAQVRSVPLVEGVDFFNELERAIRESYPKPKMMILGFPSNPTAQCVELEFFEKVVALAKRYDVLVVHDLAYADIVYDGWKAPSIMQVPGARDVAVEFFTLSKSYNMAGWRIGFMVGNKTLVSALARIKSYHDDGTFTPLQVAAIAALEGDQQCVRDIAEQYKRRRDVLVKGLHEAGWMVEMPKASMYVWAKIPEPYAAMGSLEFAKKLLNEAKVCVSPGIGFGDYGDTHVRFALIENRDRIRQAIRGIKAMFRADGLLPASSKHIHENAE
[7]
  higher catalytic activity on homoserine: 100 fold

B2: YjhH: E. coli pyruvate aldolase, E.C. 4.1.2.28, natural substrate 2-keto-3-deoxy-D-arabinonate; His-tagged recombinant protein (protein, UniProt P39359 1-301, looked up)
Probable …: MKKFSGIIPPVSSTFHRDGTLDKKAMREVADFLINKGVDGLFYLGTGGEFSQMNTAQRMALAEEAVTIVDGRVPVLIGVGSPSTDEAVKLAQHAQAYGADGIVAINPYYWKVAPRNLDDYYQQIARSVTLPVILYNFPDLTGQDLTPETVTRLALQNENIVGIKDTIDSVGHLRTMINTVKSVRPSFSVFCGYDDHLLNTMLLGGDGAITASANFAPELSVGIYRAWREGDLATAATLNKKLLQLPAIYALETPFVSLIKYSMQCVGLPVETYCLPPILEASEEAKDKVHVLLTAQGILPV
modifications: His tag
notes: E. coli pyruvate aldolase, E.C; 4.1.2.28, natural substrate 2-keto-3-deoxy-D-arabinonate; His-tagged recombinant protein
[8]
  function on OHB in vivo: most efficient to degrade OHB in vivo

B3: GarL: E. coli pyruvate aldolase, E.C. 4.1.2.20, natural substrate 5-dehydro-4-deoxy-D-glucarate (protein, UniProt P23522 1-256, looked up)
5-keto-4-deoxy-D-glucarate …: MNNDVFPNKFKAALAAKQVQIGCWSALSNPISTEVLGLAGFDWLVLDGEHAPNDISTFIPQLMALKGSASAPVVRVPTNEPVIIKRLLDIGFYNFLIPFVETKEEAELAVASTRYPPEGIRGVSVSHRANMFGTVADYFAQSNKNITILVQIESQQGVDNVDAIAATEGVDGIFVGPSDLAAALGHLGNASHPDVQKAIQHIFNRASAHGKPSGILAPVEADARRYLEWGATFVAVGSDLGVFRSATQKLADTFKK
[8]
  function on OHB in vivo: do not have any function on OHB in vivo

B4: Escherichia coli pyruvate aldolase DgoA (E.C. 4.1.2.21) (Escherichia coli K-12) (protein)
chain: MQWQTKLPLIAILRGITPDEALAHVGAVIDAGFDAVEIPLNSPQWEQSIPAIVDAYGDKALIGAGTVLKPEQVDALARMGCQLIVTPNIHSEVIRRAVGYGMTVCPGCATATEAFTALEAGAQALKIFPSSAFGPQYIKALKAVLPSDIAVFAVGGVTPENLAQWIDAGCAGAGLGSDLYRAGQSVERTAQQAAAFVKAYREAVQ
notes: coupled LdhA/NADH assay
[9]; other: DgoA
  Km: 2800 µM
  Vmax: 0.04 µmol/min/mg
  kcat: 0.012 s⁻¹
  kcat/Km: 4.7 M⁻¹ s⁻¹

B5: YfaU: E. coli pyruvate aldolase, E.C. 4.1.2.53, natural substrate 2-keto-3-deoxy-L-rhamnonate (protein, UniProt P76469 1-267, looked up)
2-keto-3-deoxy-L-rhamnonate …: MNALLSNPFKERLRKGEVQIGLWLSSTTAYMAEIAATSGYDWLLIDGEHAPNTIQDLYHQLQAVAPYASQPVIRPVEGSKPLIKQVLDIGAQTLLIPMVDTAEQARQVVSATRYPPYGERGVGASVARAARWGRIENYMAQVNDSLCLLVQVESKTALDNLDEILDVEGIDGVFIGPADLSASLGYPDNAGHPEVQRIIETSIRRIRAAGKAAGFLAVAPDMAQQCLAWGANFVAVGVDTMLYSDALDQRLAMFKSGKNGPRIKGSY
[8]
  function on OHB in vivo: do not have any function on OHB in vivo

B6: Escherichia coli pyruvate aldolase YagE (E.C. 4.1.2.28) (Escherichia coli K-12) (protein)
chain: MPQSALFTGIIPPVSTIFTADGQLDKPGTAALIDDLIKAGVDGLFFLGSGGEFSQLGAEERKAIARFAIDHVDRRVPVLIGTGGTNARETIELSQHAQQAGADGIVVINPYYWKVSEANLIRYFEQVADSVTLPVMLYNFPALTGQDLTPALVKTLADSRSNIIGIKDTIDSVAHLRSMIHTVKGAHPHFTVLCGYDDHLFNTLLLGGDGAISASGNFAPQVSVNLLKAWRDGDVAKAAGYHQTLLQIPQMYQLDTPFVNVIKEAIVLCGRPVSTHVLPPASPLDEPRKAQLKTLLQQLKLC
notes: coupled LdhA/NADH assay
[9]; other: YagE
  Km: 350 µM
  Vmax: 0.63 µmol/min/mg
  kcat: 0.04 s⁻¹
  kcat/Km: 115 M⁻¹ s⁻¹

B7: YagE: E. coli pyruvate aldolase, E.C. 4.1.2.28, natural substrate 2-keto-3-deoxy-D-arabinonate; His-tagged recombinant protein (protein, UniProt P75682 1-302, looked up)
Putative …: MPQSALFTGIIPPVSTIFTADGQLDKPGTAALIDDLIKAGVDGLFFLGSGGEFSQLGAEERKAIARFAIDHVDRRVPVLIGTGGTNARETIELSQHAQQAGADGIVVINPYYWKVSEANLIRYFEQVADSVTLPVMLYNFPALTGQDLTPALVKTLADSRSNIIGIKDTIDSVAHLRSMIHTVKGAHPHFTVLCGYDDHLFNTLLLGGDGAISASGNFAPQVSVNLLKAWRDGDVAKAAGYHQTLLQIPQMYQLDTPFVNVIKEAIVLCGRPVSTHVLPPASPLDEPRKAQLKTLLQQLKLC
modifications: His tag
notes: as for B2
[8]
  function on OHB in vivo: most efficient to degrade OHB in vivo
